According to paper PMC6224402, “PIM2-mediated phosphorylation of hexokinase 2 is critical for tumor growth and paclitaxel resistance in breast cancer” (Oncogene, 2018):

Target: T1, GST-tagged HK2 (human, UniProt P52789 1-917)
T1 construct: Hexokinase 2 (HK2), human cDNA cloned into pGEX-4T-1; also called GST-HK2; source: E. coli BL21 (DE3), purified
T1 sequence (looked up): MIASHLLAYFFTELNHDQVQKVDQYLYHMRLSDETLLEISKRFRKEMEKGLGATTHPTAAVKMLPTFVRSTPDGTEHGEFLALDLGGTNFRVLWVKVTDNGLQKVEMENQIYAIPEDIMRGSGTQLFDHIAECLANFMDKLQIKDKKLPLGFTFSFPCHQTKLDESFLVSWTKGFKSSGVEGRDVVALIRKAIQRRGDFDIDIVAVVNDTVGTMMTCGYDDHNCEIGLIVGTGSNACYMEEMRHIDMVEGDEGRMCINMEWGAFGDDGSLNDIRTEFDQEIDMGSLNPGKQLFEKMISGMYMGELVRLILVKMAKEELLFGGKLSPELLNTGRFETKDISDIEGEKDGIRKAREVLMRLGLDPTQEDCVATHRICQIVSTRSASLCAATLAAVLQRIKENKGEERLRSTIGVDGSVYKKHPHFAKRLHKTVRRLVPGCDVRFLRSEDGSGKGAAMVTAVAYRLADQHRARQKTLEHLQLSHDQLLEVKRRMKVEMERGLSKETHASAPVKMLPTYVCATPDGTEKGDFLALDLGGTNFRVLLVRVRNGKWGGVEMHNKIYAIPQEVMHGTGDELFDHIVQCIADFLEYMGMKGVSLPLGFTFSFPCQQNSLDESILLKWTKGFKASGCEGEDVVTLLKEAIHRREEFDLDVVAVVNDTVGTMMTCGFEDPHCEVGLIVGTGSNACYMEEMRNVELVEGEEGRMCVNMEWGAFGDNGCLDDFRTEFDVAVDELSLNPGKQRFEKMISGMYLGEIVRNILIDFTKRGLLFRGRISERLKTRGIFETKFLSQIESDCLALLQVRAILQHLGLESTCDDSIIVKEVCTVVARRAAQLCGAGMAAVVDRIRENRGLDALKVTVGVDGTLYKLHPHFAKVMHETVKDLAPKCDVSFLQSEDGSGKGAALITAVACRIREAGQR
Experiment: pull-down; purified GST-tagged HK2 or GST mixed with His-PIM2; GST-binding resin, more than 8 h, five washes with lysis buffer
Settings: both partners purified

B1: His-tagged PIM2 (enzyme)
chain: not shown
notes: Serine/threonine kinase PIM2, human cDNA cloned into pet28a; also called His-PIM2; source: E. coli BL21 (DE3), purified
  binding result: binds
